Some results are limits rather than exact numbers.

Results on four molecules are retold here after patent US20220096548A1.

The target in one assay is human IL-6 (human) (UniProt P05231). In words: cell-based or functional assay.
Assay [1] deals with IL-6R expressed on HEK-Blue IL-6 reporter cells (UniProt P08887). As to the kind of experiment: cell-based or functional assay.
Sequence of UniProt P08887 (P08887 20-468 limits assumed): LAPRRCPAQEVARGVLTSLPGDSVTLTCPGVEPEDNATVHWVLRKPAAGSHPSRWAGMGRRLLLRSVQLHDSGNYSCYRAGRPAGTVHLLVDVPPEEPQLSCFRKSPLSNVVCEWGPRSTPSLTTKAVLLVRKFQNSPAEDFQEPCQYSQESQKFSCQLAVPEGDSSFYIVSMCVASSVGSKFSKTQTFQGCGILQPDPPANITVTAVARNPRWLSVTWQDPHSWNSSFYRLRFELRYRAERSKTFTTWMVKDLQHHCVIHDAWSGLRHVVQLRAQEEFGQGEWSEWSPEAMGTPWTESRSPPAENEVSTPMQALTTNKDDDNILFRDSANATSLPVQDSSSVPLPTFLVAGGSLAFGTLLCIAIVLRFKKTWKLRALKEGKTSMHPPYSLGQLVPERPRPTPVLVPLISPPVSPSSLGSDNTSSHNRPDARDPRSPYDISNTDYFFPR

Sequence of UniProt P05231 (P05231 30-212 limits assumed): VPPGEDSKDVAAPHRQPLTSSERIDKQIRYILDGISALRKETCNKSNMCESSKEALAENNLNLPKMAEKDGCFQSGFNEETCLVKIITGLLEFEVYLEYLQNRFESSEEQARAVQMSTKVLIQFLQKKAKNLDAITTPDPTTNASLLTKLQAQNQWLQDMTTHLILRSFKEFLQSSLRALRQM

B1: scFv antibody derived from reference Antibody 3 (binding to IL-6), fused with an Fc fragment of human IgG1 (Fc fusion, not shown: a dimerising Fc or GST)
scFv: QIVLIQSPAIMSASPGEKVTMTCSASSSVSYMYWYQQKPGSSPRLLIYDTSNLASGVPVRFSGSGSGTSYSLTISRMEAEDAATYYCQQWSGYPYTFGGGTKLEIKGGGGSGGGGSGGGGSEVQLVESGGKLLKPGGSLKLSCAASGFTFSSFAMSWFRQSPEKRLEWVAEISSGGSYTYYPDTVTGRFTISRDNAKNTLYLEMSSLRSEDTAMYYCARGLWGYYALDYWGQGTSVTVSS
Regarding B1, the inhibition of IL-6 signaling (SEAP production by HEK-Blue IL-6 reporter cells, 2 ng/ml human IL-6) in the assay with human IL-6 (human) is < 60%.

B2: scFv antibody derived from reference Antibody 2 (binding to IL-6), fused with an Fc fragment of human IgG1 (Fc fusion, not shown: a dimerising Fc or GST)
scFv: EIVLTQSPATLSLSPGERATLSCSASISVSYMYWYQQKPGQAPRLLIYDMSNLASGIPARFSGSGSGTDFTLTISSLEPEDFAVYYCMQWSGYPYTFGGGTKVEIKGGGGSGGGGSGGGGSEVQLVESGGGLVQPGGSLRLSCAASGFTFSPFAMSWVRQAPGKGLEWVAKISPGGSWTYYSDTVTGRFTISRDNAKNSLYLQMNSLRAEDTAVYYCARQLWGYYALDIWGQGTTVTVSS
In turn, B2 displayed an inhibition of IL-6 signaling (SEAP production by HEK-Blue IL-6 reporter cells, 2 ng/ml human IL-6) with human IL-6 (human) of 100%.

B3: scFv antibody derived from reference Antibody 1 (binding to IL-6R), fused with an Fc fragment of human IgG1 (Fc fusion, not shown: a dimerising Fc or GST)
scFv: DIQMTQSPSSVSASVGDRVTITCRASQGISSWLAWYQQKPGKAPKLLIYGASSLESGVPSRFSGSGSGTDFTLTISSLQPEDFASYYCQQANSFPYTFGQGTKLEIKGGGGSGGGGSGGGGSEVQLVESGGGLVQPGRSLRLSCAASRFTFDDYAMHWVRQAPGKGLEWVSGISWNSGRIGYADSVKGRFTISRDNAENSLFLQMNGLRAEDTALYYCAKGRDSFDIWGQGTMVTVSS
In assay [1], B3 displayed an inhibition of IL-6 signaling (SEAP production by HEK-Blue IL-6 reporter cells, 2 ng/ml human IL-6) of 100%.

B4: scFv antibody derived from reference Antibody 4 (binding to IL-6R), fused with an Fc fragment of human IgG1 (Fc fusion, not shown: a dimerising Fc or GST)
scFv: QVQLQESGPGLVRPSQTLSLTCTVSGYSITSDHAWSWVRQPPGRGLEWIGYISYSGITTYNPSLKSRVTMLRDTSKNQFSLRLSSVTAADTAVYYCARSLARTTAMDYWGQGSLVTVSSGGGGSGGRASGGGGSGGGGSDIQMTQSPSSLSASVGDRVTITCRASQDISSYLNWYQQKPGKAPKLLIYYTSRLHSGVPSRFSGSGSGTDFTFTISSLQPEDIATYYCQQGNTLPYTFGQGTKVEIK
Turning to B4, the inhibition of IL-6 signaling (SEAP production by HEK-Blue IL-6 reporter cells, 2 ng/ml human IL-6) in assay [1] is < 60%.
